Measured values: US20130122005A1, “ANTICANCER COMBINATION THERAPY” (priority 2011, published 2013)

Target: human IGF-1R (human) (UniProt P08069)
Assay: cell-based or functional assay

Sequence of human IGF-1R (human) (P08069 31-1367): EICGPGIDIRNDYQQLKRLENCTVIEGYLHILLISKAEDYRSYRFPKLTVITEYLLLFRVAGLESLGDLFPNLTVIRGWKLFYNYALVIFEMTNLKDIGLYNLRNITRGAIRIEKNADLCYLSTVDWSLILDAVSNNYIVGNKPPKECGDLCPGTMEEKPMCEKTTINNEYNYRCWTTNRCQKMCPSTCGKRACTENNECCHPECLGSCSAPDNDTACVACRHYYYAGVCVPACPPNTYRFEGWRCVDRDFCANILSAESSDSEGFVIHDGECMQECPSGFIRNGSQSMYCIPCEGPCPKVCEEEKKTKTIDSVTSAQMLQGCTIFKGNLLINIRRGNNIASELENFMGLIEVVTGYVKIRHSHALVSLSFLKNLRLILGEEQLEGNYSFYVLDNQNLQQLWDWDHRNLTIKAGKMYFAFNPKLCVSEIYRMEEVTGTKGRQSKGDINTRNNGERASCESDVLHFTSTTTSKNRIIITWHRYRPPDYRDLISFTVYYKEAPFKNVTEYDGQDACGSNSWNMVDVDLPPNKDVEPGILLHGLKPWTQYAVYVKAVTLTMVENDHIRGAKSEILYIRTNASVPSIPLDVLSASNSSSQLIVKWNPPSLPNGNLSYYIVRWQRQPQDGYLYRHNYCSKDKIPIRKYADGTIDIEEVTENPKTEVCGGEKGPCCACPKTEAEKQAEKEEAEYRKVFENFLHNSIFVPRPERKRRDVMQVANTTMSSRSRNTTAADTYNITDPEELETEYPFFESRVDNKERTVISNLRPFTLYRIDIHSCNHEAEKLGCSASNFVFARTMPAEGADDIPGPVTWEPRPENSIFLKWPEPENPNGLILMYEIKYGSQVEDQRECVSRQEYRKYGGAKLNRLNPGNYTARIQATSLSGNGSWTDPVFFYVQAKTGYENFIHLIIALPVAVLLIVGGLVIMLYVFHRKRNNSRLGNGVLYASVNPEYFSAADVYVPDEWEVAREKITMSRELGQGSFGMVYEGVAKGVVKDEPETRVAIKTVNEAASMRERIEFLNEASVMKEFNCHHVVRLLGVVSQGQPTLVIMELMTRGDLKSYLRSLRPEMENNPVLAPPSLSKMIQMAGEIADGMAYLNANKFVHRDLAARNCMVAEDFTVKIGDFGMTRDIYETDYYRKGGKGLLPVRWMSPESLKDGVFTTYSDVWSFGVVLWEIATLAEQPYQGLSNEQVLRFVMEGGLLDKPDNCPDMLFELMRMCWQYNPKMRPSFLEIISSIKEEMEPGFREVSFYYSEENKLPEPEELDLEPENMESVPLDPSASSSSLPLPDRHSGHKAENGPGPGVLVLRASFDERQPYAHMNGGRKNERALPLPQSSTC

Substance “IGF-1R antibody αIR3 (Calbiochem, No. GR11L)” has a % Remaining Phosphorylation at 15 µg/mL (100 nM) Inhibitor, IGF-1 (20 ng/mL) induced IGF-1R phosphorylation of 35%, a % Remaining Phosphorylation at 15 µg/mL (100 nM) Inhibitor, IGF-2 (100 ng/mL) induced IGF-1R phosphorylation of 76% and a % Remaining Phosphorylation at 15 µg/mL (100 nM) Inhibitor, human serum (20%) induced IGF-1R phosphorylation of 120%. It also gave an IC50, IGF-1 (20 ng/mL) induced IGF-1R phosphorylation, cell-based ELISA of 1.16 mg/L, an IC50, IGF-2 (100 ng/mL) induced IGF-1R phosphorylation, cell-based ELISA greater than 15 mg/L and an IC50, human serum (20%) induced IGF-1R phosphorylation, cell-based ELISA greater than 15 mg/L.
